One block for each sequence: values may come before it.
Columns and labels:
[1] = target: HLA-A*02:01; assay: IEDB peptide-MHC binding, purified MHC/competitive/radioactivity; filed as Kd, often an IC50 or EC50 that approximates it; ≥ and ≤ were set here for values at or beyond the usual limits of such assays; settings: source organism: Homo sapiens
[2] = target: HLA-A*02:06; assay: as above
[3] = target: HLA-A*68:02; assay: as above
[4] = target: HLA-B*18:01; assay: as above
[5] = target: HLA-B*40:01; assay: as above
[6] = target: HLA-B*40:02; assay: as above
[7] = target: HLA-B*44:02; assay: as above
[8] = target: HLA-B*44:03; assay: as above
[9] = target: HLA-B*45:01; assay: as above
[10] = target: HLA-A*02:02; assay: as above; settings: source organism: Lassa virus Josiah
[11] = target: HLA-A*02:03; assay: as above; settings: source organism: Lassa virus Josiah
[12] = target: HLA-A*26:01; assay: as above; settings: source organism: Dengue virus 2 Jamaica/1409/1983
[13] = target: HLA-A*01:01; assay: IEDB peptide-MHC binding, purified MHC/direct/fluorescence; filed as Kd, often an IC50 or EC50 that approximates it; ≥ and ≤ were set here for values at or beyond the usual limits of such assays
[14] = target: HLA-A*02:01; assay: as above
[15] = target: HLA-A*03:01; assay: as above
[16] = target: HLA-A*11:01; assay: as above
[17] = target: HLA-A*24:03; assay: as above
[18] = target: HLA-A*26:01; assay: as above
[19] = target: HLA-A*31:01; assay: as above
[20] = target: HLA-A*69:01; assay: as above
[21] = target: HLA-B*07:02; assay: as above
[22] = target: HLA-B*08:01; assay: as above
[23] = target: HLA-B*15:01; assay: as above
[24] = target: HLA-B*27:05; assay: as above
[25] = target: HLA-B*40:01; assay: as above
[26] = target: HLA-B*44:02; assay: as above
[27] = target: HLA-B*58:01; assay: as above
[28] = source organism: Mammarenavirus mopeiaense
[29] = source organism: Lassa virus Josiah
[30] = source organism: Mammarenavirus brazilense
[31] = source organism: SARS coronavirus Tor2
[32] = source organism: Dengue virus 4 Philippines/H241/1956
[33] = source organism: Mammarenavirus choriomeningitidis
[34] = source organism: Vibrio vulnificus
[35] = source organism: Rickettsia sibirica

Kd [1]: ≥ 28.6 µM | Kd ([2]; source organism: Homo sapiens): ≥ 45.6 µM | Kd ([3]; source organism: Homo sapiens): ≥ 21.5 µM
Sequence: TLENERGEL

Sequence: PELLNNQFGT
Kd [4, 28]: 16.2 µM | Kd [5, 28]: ≥ 69.5 µM | Kd [6, 28]: ≥ 27.2 µM | Kd [7, 28]: ≥ 70.2 µM | Kd [8, 28]: ≥ 69.7 µM | Kd [9, 28]: ≥ 70 µM

Sequence: RLLGTFTWTL
Kd [10]: 0.117 µM | Kd [11]: 0.106 µM | Kd [2, 29]: 0.00755 µM | Kd [3, 29]: ≥ 5 µM

Sequence: SDHLLSEML
Kd [4, 30]: ≥ 77.5 µM | Kd [5, 30]: 5.29 µM | Kd [6, 30]: 2.26 µM | Kd [7, 30]: ≥ 26.9 µM | Kd [8, 30]: ≥ 78.1 µM | Kd [9, 30]: ≥ 77.7 µM

Sequence: MAIGIVSIL
Kd ([3]; source organism: Dengue virus 1 Brazil/97-11/1997): 0.00239 µM

Sequence: AELLNNQFGT
Kd [4, 29]: ≥ 70.4 µM | Kd [5, 29]: 2.32 µM | Kd [6, 29]: 1.12 µM | Kd [7, 29]: 3.24 µM | Kd [8, 29]: 16.6 µM | Kd [9, 29]: 11.4 µM

Sequence: AEVQIDRLI
Kd [4, 31]: ≥ 77.5 µM | Kd [5, 31]: 10.9 µM | Kd [6, 31]: 0.0924 µM | Kd [7, 31]: 0.0901 µM | Kd [8, 31]: 0.094 µM | Kd [9, 31]: 0.985 µM

Sequence: LSMGLIAIAV
Kd [2, 32]: 0.00523 µM | Kd [3, 32]: 0.588 µM

Sequence: ITVSGLYPL
Kd [3, 32]: 0.0123 µM

Sequence: REGLLNYSM
Kd [4, 33]: 0.148 µM | Kd [5, 33]: 1.19 µM | Kd [6, 33]: 0.0177 µM | Kd [7, 33]: 1.18 µM | Kd [8, 33]: 1.22 µM | Kd [9, 33]: 2.46 µM

Sequence: YEGNSPFHPL
Kd [4, 31]: 12.3 µM | Kd [5, 31]: 0.0462 µM | Kd [6, 31]: 0.0122 µM | Kd [7, 31]: 8.1 µM | Kd [8, 31]: 16.8 µM | Kd [9, 31]: ≥ 42.7 µM

Sequence: IDYDCVSFCY
Kd [4, 31]: 3 µM | Kd [5, 31]: 10.5 µM | Kd [6, 31]: ≥ 38.5 µM | Kd [7, 31]: 1.55 µM | Kd [8, 31]: 0.759 µM | Kd [9, 31]: 5.8 µM

Sequence: AEQLMSLAA
Kd [4, 33]: 3.64 µM | Kd [5, 33]: 1.85 µM | Kd [6, 33]: 0.00331 µM | Kd [7, 33]: 0.214 µM | Kd [8, 33]: 4.48 µM | Kd [9, 33]: 0.0017 µM

Sequence: ETACLGKSYA
Kd [12]: 0.163 µM | Kd ([3]; source organism: Dengue virus 2 Jamaica/1409/1983): 0.00748 µM

Sequence: GSEVPGFCH
Kd [13, 34]: ≥ 20 µM | Kd [14, 34]: ≥ 20 µM | Kd [15, 34]: ≥ 20 µM | Kd [16, 34]: ≥ 20 µM | Kd [17, 34]: ≥ 20 µM | Kd [18, 34]: ≥ 20 µM | Kd [19, 34]: ≥ 20 µM | Kd [20, 34]: ≥ 20 µM | Kd [21, 34]: ≥ 20 µM | Kd [22, 34]: ≥ 20 µM | Kd [23, 34]: ≥ 20 µM | Kd [24, 34]: ≥ 20 µM | Kd [25, 34]: ≥ 20 µM | Kd [26, 34]: ≥ 20 µM | Kd [27, 34]: ≥ 20 µM

Sequence: NEYRQYLDAY
Kd [4, 31]: 0.253 µM | Kd [5, 31]: ≥ 21.9 µM | Kd [6, 31]: 0.632 µM | Kd [7, 31]: 1.99 µM | Kd [8, 31]: 0.0832 µM | Kd [9, 31]: 4.93 µM

Sequence: ASDRISGIL
Kd [13, 35]: 6.55 µM | Kd [14, 35]: ≥ 20 µM | Kd [15, 35]: ≥ 20 µM | Kd [16, 35]: ≥ 20 µM | Kd [17, 35]: ≥ 20 µM | Kd [18, 35]: ≥ 20 µM | Kd [19, 35]: ≥ 20 µM | Kd [20, 35]: ≥ 20 µM | Kd [21, 35]: 14.6 µM | Kd [22, 35]: ≥ 20 µM | Kd [23, 35]: 5.16 µM | Kd [24, 35]: ≥ 20 µM | Kd [25, 35]: 1.46 µM | Kd [26, 35]: ≥ 20 µM | Kd [27, 35]: ≥ 20 µM

— the Immune Epitope Database (IEDB)
